This note sets out measurements from patent US20230212549A1, “COMPOUNDS COMPRISING A […] LIGAND AND USE THEREOF” (priority 2021, published 2023).

Common to all, as to experiment: cell-based or functional assay
The target in assay [1] is T1, A20, P21580.
T1 chain: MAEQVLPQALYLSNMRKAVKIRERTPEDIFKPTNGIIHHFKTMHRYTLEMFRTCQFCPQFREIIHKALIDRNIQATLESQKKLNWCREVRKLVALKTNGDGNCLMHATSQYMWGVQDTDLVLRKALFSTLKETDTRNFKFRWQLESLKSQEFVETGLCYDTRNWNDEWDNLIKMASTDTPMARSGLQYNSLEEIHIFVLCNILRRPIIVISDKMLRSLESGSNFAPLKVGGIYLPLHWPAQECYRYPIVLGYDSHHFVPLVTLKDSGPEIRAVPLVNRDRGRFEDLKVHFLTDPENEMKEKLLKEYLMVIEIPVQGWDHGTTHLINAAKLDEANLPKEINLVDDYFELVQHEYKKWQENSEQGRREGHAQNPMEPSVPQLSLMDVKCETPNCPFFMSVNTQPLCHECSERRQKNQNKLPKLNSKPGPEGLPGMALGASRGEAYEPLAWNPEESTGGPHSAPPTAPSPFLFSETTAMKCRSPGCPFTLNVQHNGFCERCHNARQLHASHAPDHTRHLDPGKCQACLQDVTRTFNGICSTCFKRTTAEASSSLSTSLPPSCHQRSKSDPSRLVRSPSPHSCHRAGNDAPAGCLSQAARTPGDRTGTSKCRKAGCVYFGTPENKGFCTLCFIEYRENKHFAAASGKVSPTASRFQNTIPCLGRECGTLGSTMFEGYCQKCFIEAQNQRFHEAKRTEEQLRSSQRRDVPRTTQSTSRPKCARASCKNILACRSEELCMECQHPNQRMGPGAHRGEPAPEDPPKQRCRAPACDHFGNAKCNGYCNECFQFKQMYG

The target in assay [2] is Beta secretase, P56817.
Sequence of Beta secretase, P56817 (P56817 22-457 limits assumed): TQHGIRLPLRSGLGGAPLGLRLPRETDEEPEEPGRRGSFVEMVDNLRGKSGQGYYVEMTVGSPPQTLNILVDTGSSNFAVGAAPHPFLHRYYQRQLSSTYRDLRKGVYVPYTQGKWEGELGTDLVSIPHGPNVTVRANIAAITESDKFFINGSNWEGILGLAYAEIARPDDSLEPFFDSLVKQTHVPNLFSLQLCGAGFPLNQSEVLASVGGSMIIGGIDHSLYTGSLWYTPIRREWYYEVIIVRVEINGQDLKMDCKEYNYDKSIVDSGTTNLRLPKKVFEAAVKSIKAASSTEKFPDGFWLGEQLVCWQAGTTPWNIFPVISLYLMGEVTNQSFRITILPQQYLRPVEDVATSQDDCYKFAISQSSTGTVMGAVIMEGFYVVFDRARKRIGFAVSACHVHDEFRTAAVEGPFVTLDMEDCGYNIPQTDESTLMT
Assay [3] concerns the target T2, Caspase-8, Q14790.
T2 chain: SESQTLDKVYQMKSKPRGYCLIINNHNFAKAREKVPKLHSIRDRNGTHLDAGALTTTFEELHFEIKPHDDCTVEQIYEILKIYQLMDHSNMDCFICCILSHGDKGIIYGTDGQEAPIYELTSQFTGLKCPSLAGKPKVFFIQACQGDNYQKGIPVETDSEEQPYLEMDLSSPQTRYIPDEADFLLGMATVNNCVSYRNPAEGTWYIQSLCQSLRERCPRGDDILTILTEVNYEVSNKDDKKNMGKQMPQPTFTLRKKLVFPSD

For assay [4], the target named is Ubiquitin carboxyl-terminal hydrolase 10, Q14694.
Sequence of Ubiquitin carboxyl-terminal hydrolase 10, Q14694 (Q14694 whole entry): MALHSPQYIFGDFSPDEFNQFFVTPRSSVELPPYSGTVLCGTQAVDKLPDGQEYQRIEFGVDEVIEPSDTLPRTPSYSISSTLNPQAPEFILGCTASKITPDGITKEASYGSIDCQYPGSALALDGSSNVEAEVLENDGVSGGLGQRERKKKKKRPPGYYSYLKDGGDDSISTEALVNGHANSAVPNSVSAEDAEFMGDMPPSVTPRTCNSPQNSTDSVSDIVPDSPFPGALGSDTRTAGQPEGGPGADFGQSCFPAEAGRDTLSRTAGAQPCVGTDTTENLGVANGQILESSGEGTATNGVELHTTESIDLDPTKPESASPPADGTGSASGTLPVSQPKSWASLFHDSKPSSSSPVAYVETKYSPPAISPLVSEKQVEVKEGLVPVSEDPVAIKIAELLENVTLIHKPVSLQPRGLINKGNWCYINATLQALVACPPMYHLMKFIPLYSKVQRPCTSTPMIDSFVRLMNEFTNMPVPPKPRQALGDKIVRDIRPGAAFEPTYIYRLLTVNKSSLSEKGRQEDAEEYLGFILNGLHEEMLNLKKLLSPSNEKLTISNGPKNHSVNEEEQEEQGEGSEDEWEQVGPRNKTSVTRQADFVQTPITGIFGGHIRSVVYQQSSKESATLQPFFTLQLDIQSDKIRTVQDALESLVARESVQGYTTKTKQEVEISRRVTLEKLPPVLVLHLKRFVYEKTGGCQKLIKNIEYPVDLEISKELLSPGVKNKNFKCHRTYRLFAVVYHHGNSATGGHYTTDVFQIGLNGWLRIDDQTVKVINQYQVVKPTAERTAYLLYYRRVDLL
Assay [5] deals with T3, Ubiquitin carboxyl-terminal hydrolase 2, O75604.
T3 chain: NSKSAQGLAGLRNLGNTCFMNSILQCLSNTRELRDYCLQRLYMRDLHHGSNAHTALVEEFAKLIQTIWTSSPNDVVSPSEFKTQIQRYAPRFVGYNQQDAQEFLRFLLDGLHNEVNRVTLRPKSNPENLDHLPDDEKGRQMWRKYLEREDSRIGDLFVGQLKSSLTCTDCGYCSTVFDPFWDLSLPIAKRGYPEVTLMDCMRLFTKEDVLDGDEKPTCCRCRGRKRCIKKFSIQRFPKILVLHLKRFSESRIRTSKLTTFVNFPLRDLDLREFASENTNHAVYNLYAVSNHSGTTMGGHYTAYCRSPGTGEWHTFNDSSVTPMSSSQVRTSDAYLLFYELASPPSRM

Assay [6] addresses T4, Acetylcholinesterase (h) (human), P22303.
T4 chain: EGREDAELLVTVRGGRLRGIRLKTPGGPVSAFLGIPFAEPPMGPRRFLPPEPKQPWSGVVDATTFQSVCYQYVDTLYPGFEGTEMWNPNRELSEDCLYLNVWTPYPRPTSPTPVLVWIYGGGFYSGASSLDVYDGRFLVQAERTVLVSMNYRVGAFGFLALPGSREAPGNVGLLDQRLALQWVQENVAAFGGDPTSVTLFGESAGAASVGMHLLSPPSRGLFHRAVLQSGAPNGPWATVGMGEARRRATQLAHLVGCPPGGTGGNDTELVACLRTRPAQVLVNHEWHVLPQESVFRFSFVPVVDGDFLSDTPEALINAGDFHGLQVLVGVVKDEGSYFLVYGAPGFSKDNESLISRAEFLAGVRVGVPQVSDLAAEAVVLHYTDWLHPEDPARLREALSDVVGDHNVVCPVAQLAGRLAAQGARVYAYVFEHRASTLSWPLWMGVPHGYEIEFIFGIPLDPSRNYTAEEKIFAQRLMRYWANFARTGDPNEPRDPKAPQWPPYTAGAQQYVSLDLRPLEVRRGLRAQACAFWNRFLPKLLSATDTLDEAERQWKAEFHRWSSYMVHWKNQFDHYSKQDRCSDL

Assay [7] has as its target T5, Caspase-9, P55211.
T5 chain: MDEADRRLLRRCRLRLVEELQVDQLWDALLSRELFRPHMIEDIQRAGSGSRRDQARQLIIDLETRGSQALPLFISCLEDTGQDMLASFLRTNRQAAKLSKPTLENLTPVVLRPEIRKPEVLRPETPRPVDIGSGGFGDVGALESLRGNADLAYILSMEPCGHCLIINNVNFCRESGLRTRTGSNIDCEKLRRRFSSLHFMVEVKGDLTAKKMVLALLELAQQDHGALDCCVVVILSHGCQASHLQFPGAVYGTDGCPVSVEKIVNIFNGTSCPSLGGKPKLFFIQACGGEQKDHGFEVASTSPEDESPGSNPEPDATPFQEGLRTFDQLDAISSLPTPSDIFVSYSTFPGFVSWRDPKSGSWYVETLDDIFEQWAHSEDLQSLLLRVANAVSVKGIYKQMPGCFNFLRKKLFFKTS

The target in assay [8] is T6, Renin, P00797.
T6 chain: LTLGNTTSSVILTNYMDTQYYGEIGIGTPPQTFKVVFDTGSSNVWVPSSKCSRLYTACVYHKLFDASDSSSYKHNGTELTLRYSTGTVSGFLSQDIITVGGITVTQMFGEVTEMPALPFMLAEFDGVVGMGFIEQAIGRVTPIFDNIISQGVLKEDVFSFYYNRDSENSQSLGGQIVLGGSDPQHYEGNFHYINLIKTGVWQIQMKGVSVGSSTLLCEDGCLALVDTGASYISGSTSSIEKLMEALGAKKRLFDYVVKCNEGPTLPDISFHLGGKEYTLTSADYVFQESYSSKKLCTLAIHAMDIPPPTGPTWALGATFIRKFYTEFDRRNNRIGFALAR

Bridge positions count the residues as written; N and C are the ends.

B1: Hex-[Cys(tMeBn(DOTA-AET))-Pro-Pro-Thr-Gln-Phe-Cys]-OH (peptide)
peptide: Hex-CPPTQFC-OH
modifications: bridge 1-7; not fully specified (bridges); printed as Hex-[Cys(tMeBn(DOTA-AET))-Pro-Pro-Thr-Gln-Phe-Cys]-OH
On to B1, for which the Percentage inhibition (%) at 1 µM in assay [1] was 1%; in assay [2] it was 1%; in assay [3], 0%; in assay [4] it was 1%; in assay [5] it was 0%; in assay [7], -1%. The Percentage inhibition (%) at 1 µM in assay [8] was 0%. Further, the Percentage inhibition (%) at 10 µM is 0% in assay [1]; 7% in assay [2]; -3% in assay [3]; -1% in assay [4]; -1% in assay [5]; -2% in assay [7]. In assay [8], the Percentage inhibition (%) at 10 µM was -1%. Moreover, the % inhibition of control enzyme activity, compound at 10 µM in assay [6] came out at 1%.

B2: Hex-[Cys(tMeBn(DOTA-PP))-Pro-Pro-Thr-Gln-Phe-Cys]-Asp-NH2 (peptide)
peptide: Hex-CPPTQFCD-NH2
modifications: bridge 1-7; not fully specified (bridges); printed as Hex-[Cys(tMeBn(DOTA-PP))-Pro-Pro-Thr-Gln-Phe-Cys]-Asp-NH2
On to B2, for which the Percentage inhibition (%) at 1 µM in assay [1] was 2%; in assay [2], -8%; in assay [3], 0%; in assay [4] it was -2%; in assay [5], 3%; in assay [7], 5%. Besides, the Percentage inhibition (%) at 1 µM in assay [8] was -1%. Besides, the Percentage inhibition (%) at 10 µM in assay [1] is -4%; in assay [2], -5%; in assay [3], 0%; in assay [4] it was 5%; in assay [5] it was 7%; in assay [7], 8%. The Percentage inhibition (%) at 10 µM in assay [8] was found to be 3%. Further, the % inhibition of control enzyme activity, compound at 10 µM in assay [6] is -6%.
